# According to paper PMC8113883, “Wild-type sTREM2 blocks Aβ aggregation and neurotoxicity, but the Alzheimer's R47H mutant increases Aβ aggregation” (The Journal of Biological Chemistry, 2021):
# B1: dye-labeled wild-type sTREM2 (TREM2 ectodomain) for TIRF imaging (domain or fragment, human, UniProt Q9NZC2 19-143, looked up)
# chain: HNTTVFQGVAGQSLQVSCPYDSMKHWGRRKAWCRQLGEKGPCQRVVSTHNLWLLSFLRRWNGSTAITDDTLGGTLTITLRNLQPHDAGLYQCQSLHGSEADTLRKVLVEVLADPLDHRDAGDLWF
# modifications: TAMRA dye (results) or AF647 (methods), position not stated
# notes: TREM2, human, residues 19-143 (soluble ectodomain); also called TAMRA-dye labeled sTREM2; AF647-TREM2; source: Freestyle 293-F, transfected (pHLSec), purified from conditioned medium (IMAC, gel filtration); dye-labeled
# Target: T1, HiLyte Fluor 488-labeled Aβ42 oligomers (human, UniProt P05067 672-713, HiLyte Fluor 488 label (position not given))
# T1 construct: amyloid beta peptide 1-42 (Aβ42), human; cut product of the amyloid precursor protein; Oligomeric species of the 6 h aggregation mixture, told apart from monomers by photobleaching; also called oligomeric Aβ; Aβ oligomers; source: bought: AnaSpec; aggregated at 0.5 μM in PBS pH 7.4 for 6 h in a shaking incubator
# Assay: single-molecule TIRF two-color coincidence detection; HiLyte Fluor 488 Aβ aggregated 6 h (0.5 μM, PBS pH 7.4), dye-labeled sTREM2 added and imaged; monomers and oligomers told apart by photobleaching; chance coincidence subtracted
# Settings: both partners purified
binder,measurement,value
B1,binding result,binds
